Laboratory results taken from the nanobody polyreactivity screen of Harvey et al. (2022).

Experiment: yeast display, Sf9 membrane polyspecificity reagent, FACS + sequencing; frameworks hold sequencing errors
Outline: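 Genes from sorted yeast were amplified by colony PCR, read by MiSeq 2 × 250 sequencing and filtered on CDR length. These cells carried a synthetic nanobody library in Saccharomyces cerevisiae BJ5465 and were sorted by FACS into low and high (top ~1%) gates on anti-HA and streptavidin fluorescence. Polyreactivity is labelled according to the gate of origin.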

| Sequence | polyreactivity (PSR sort gate) |
| --- | --- |
| QVQLVESGGGLVQAGGSLRLSCAASGSIILPNTMGWYRQAPGKERELVASISWNGGRTYYADSVKGRFTISRDNAKNTVYLQMNSLKPEDTAVYYCNADFRYPRVRYDYWGQGTQVTVSS | low polyreactivity |
| QVQLVESGGGLVQAGGSLRLSCAASGSIFPYYAMGWYRQAPGKVRELVATISSGGSTKYADSVKGRFTISRDNAKNTVYLQMNSLKPEDTAVYYCAADWYLGPYSWYTEKYNYCGQGTQVTVSS | high polyreactivity |
| QVKLVESGVGLVQAGGSLRLSCAASGSTLTRNAMGWYRQAPGKERELVAAITQRGGSTYYADSVKGRFTLSRDNAKNTVYLQMNSLKPEDTAVYYCNVRAFHKQYSEYDYWGQGTQVTVSS | high polyreactivity |
| QVQLVESGGGLVQEGGSLRLSCASSGGIFDTNAKGWYRQARGKDREFVAAITGSGGSTYYADSVKGRFTISRDNAKNTVYLQMNSLIPEDTAVYYCAAPLSYYWVYIVRDGYDYWGQGTQVTVSS | low polyreactivity |
| QVQLVESGGGLVQAGGSLRLSCAASGRIFYYYAMGWYRQAPGKERELVAAISWSGGSTYYADSVKGRFTISRDNAKNTVYLQMNSLKPEDTAVYYCAAESRKYREYYFWGQGTQVTVSS | high polyreactivity |
| QVQLEESGGGLVQAGGSLRLSCAASGSIFHYYTMGWYRQAPGKERELVAAITSSGGSTYYADSVKGRFTISRDNAKNTVYLQMNSLKPEDTAVYYCNKVRYRGYLYVPIYVGYNYWGQGTQVTVSS | high polyreactivity |
| QVQLVESGGGLVQAGGSLRLSCAASGSTFIFYAMGWYRQAPGKERELVAAISSGGITNYADSVKGRFTISRDNAKNTVYLQMNSLKPEDTAVYYCAKRKGPRWSRQYRYPYYSWGQGTQVTVSS | high polyreactivity |
| QVHLVESGGGLVQAGGSLRLSCAASGRTFWSYAMGWYRQAPGKERELVAAISWRSGTTYYADSVKGRFTISRDNAKNTVYLQMNSLKPEDTAVYYCNAHSNYRGDYWGQGTQVTVSS | high polyreactivity |
| QVQLVESGGGFVQAGGSLRLSCAASGSIFRGYAMGWYRQAPGKERELVAAIRYSGARTYYADSVKGRFTISRDNAKNTVYLQMNSLKPEDTAVYYCNARYIRSYDYWGQGTQVTVSS | high polyreactivity |
| QVQLVESVGGLVQAGGSLRLSCAASGFTFRVNAMGWYIQAPGKERELVAAISSGGSTNYADTVKGRFTISRDNAKNTVYLQMNSLKPEDTAVYYCAKRFKYIYYWGQGTQVTVSS | high polyreactivity |
| QVQLVESRGGKVQAVGSLRLSCAASGLTFYTYAMGWYRQEPGKDRELVAAIRYRGGRSNYADSVKGRFTISRDNANNTVYLQMNSLKPEDTAVYYCAARSILVTQAYGYWGQGTQVNVSS | high polyreactivity |
| QVQLVESGGGLVQAGGSLRLSCAASGSTFLDNAMGWYRQAPGKETELVAAITQSGSSTYYADSVKGRFTISRDNAKNTVYLQMNSLKPEDTAVYYCAADVPNISFDYWGQGTQVTVSS | low polyreactivity |
| QVQLVESGGGLVQAGGSLRLSCAASGSTFEVNAMGWYRQAPGKERELVASITDGGITNYADSVKVRFTISRDNAKNTVYLQMNSLKPEDTAVYYCAAVGWYYSYYYFWGGYWGQGTQVTVSS | high polyreactivity |
| QVQLVESGGGLVQAGGSLRLSCAASGSTVYYNAMGWYRQAPGKERELVADISWRGGITYYADSVKGRFTISRDNAKNTVYLQMNSLKPAETAVYYCNADAESFDDGYWGQGTQVTVSS | low polyreactivity |
| QVQLVESGGGLVQAGGSLRLSCAASGSIFWLYAMGWYRQAPGKERELVAAITWSGGRTYYADSVKGRFTISRDTAKNTVYLQMNSLKPEDTAVYYCARRQWPWYSNPARGGKYDYWGQGTQVTVSS | low polyreactivity |
| QVQLVESGGGLVQAGGSLRLSCAASGSTFGVYAMGWYRQAPGKERELVAAISSSTGSTYYADSVKGRFTISRDNAMNSVYLQMNSLKPEDTAVYYCDAAGYGKVLGDYWGQGTLVTVSS | low polyreactivity |
| QVQLVESGGGLVQAGGSLRLSCAASGRTFMRYAMGWYRQAPGKERELVAAISRGGGRTYYADSVKGRFTISRDNAKNTVYLQMNSLKPEDTAVYYCAADLSPEYDYWGQGTQVTVSS | high polyreactivity |
| QVQLVESGGGLVQAGGSLRLSCAASGSTFAINAMGWYRQAPGKERELVAAITSGGGTNYADSVKGRFTISRDNAKNTVFLQMISLKPEDTAVYYCYGRVYWYYPMDYWGQGTQVTVSS | low polyreactivity |
| QVQLVESGGGLVQAGGSLRLSCAASGSTFSPYAMGWYRQAPGKERELVAAISSSGGSTYYADSVKGRFTISRDNAKNTVYLQMNSLKPEDTAVYYCRSFTSAQTLDYWGQGTQVTVSS | high polyreactivity |
| QVQLVESGGGLVQAGGSLRLSCAASGSTFQYNAMGWYRQAPGKERELVAAITGSGGSTYYADSVKGRFTISRDNAKNTVYLQMNSLKPEDTAVYYCAKLVRSFNWVLARHKYDYWGQGTQVTVSS | low polyreactivity |
| LVQLVESGGGLVQAGGSLRLSCAASGNIFYWYAMGWYRQAPRKEREFVAAITRSGGSTSYADSVKGRFTISRDNAKNTVYLQMNSLKPEDTAVYYCNATHWVHFQEFYSWGQGTQVTVSS | low polyreactivity |
| QVHLVDSGGGLVQAGGSLSLSCAASGIIFLTNAMGWYRQAPGTERELVAAITAIGGSTYYADSVKGSFTISRDTSKYTVYLQMNSLKPEDTAGYYCAADFSYVYYLYDYWGQGTQVTVSS | low polyreactivity |

| Sequence | polyreactivity (PSR sort gate) |
| --- | --- |
| QVQLVESGGGLVQAGGSLRLSCPASGSILYYYTMGWYRQAPGKERELVAAITYSGGSSYYADSVKGRFTISRDNAKNTVYLQMNSLKPEDTAVYYCAAAHSNRGVRKWEPLYFWGQRTQVTVSS | low polyreactivity |
| QVQLVESGGGLVQAGGSLRLSCAASGSIFGSNAMGWYRQALGKERELVAAISDSTGSTYYADSVKGRFTISRDNAKNTVYLQMNSLKPEDTAVYYCDARTYYYRWHIYDYWGQGSQVTVSS | low polyreactivity |
| QVQLVESGGGLVQAGGSLRLSCAASGSIFPDYAMGWYRQAPGKERELVAAITWRDDSTYFADSVKGRFTISRDNAKNTVYLQMNSLKPEDTAVYYCNASALDPLYAKDEYWGQGTQVTVSS | low polyreactivity |
| QDQLVESGGGLVQAGGSLRLSCAASGSIFVNYAMGWYRQAPGKERELVAAISRSGGRTYYADSVKGRFTISRDSAKITVYLQMNSLIPEDTAVYYCNVDPVLRTIEGDYWGQGTQVTVSS | high polyreactivity |
| QVQLVESGGGLVQAGGSLRLSCAASGSTFRYNAMGWYRQAPGTERELVAAINWSGSSTYYADSVKGRFTISRDNAKKTVYLQMNSLKPEDTAVYYCAAERPWYTKWGEYWGQGTQVTVSS | high polyreactivity |
| QLQLVESGGGLVQAGGSLRLSCAASGSTFVYNAMGWYRQAPGKERELVAAISTGGSTYYADSVKGRFTISRDNAKNTVYLQMNSLKPEDTAVYYCAAGYSWGYSSQKLRYGYWGQGTQVTVSS | high polyreactivity |
| QVQLVESGGGIVQAGGSLRVSCAASGRIFRRHNMGWYRQAPGKERELVAAITSSGGSTYADSVKGRFTISRDNAQNTVYLQMNSLKPEDTAVYYCATYVAYHRGYRTYDHWGQGTQVTVSS | low polyreactivity |
| QVQLVESGGGLVKAGGSLRLSCAASGRTFLRNAMGWYRPAPGKERELVATITRGGSTYYADSVKGRFTISRDNAKNTVYLQMNSLKPEDTAVYYCAKDITGGFRRPDYGYWGQGTQVTVSS | low polyreactivity |
| QVQLVESGGGLVQAGGSLSLSCAASGFTVYGYAMGWYRQAPGKERELVAAISRRSSSTYYADSVKGRFTISRDNAKNTVYLQMNSLKPEDTAVYYCNTVFQRTGYAAGVDYWGQGTQVTVSS | high polyreactivity |
| QVQLVESGGGLVQAGGSLRLTCAASGSILYYNAMGWYRQAPGKEREFVAAISDSGSSTYYADSVKGRFTISRDNAKNTVYLQMNSLKPEDTAVYYCNAYQGDKYDSWGQGTQVTVSS | low polyreactivity |
| QVQLVESVGGLVQAGGSLRLSCAASGITFYDNAMGWYRQAPGKERELVAGISYSGGRTYYADSVKGRFTISRDNAKNTVYLQMNSLKPEDTAVYYCNARFGKYRSRQGYYYWGQGTQVTVSS | high polyreactivity |
| QVQLVESGGGLVQAGGSLRLSCAASGSIFAVYAMGWYRQAPGKERELVATITGIDTGTYYADSVKGRFTISRDNAKNTVYLQMNSLKPEDTAVYYCAAVWRYRHLRFYYWGQGTQVTVSS | high polyreactivity |
| QVQLVESGGGLVQAGGSLRLSCAASGFIFADYAMGWYRQAPGKERELVAAITGRGTSTYYEDSVKGRFTISRDNAKNTVYLQMNSLKPEDTAVYLCAAAGTYYRHYKGYYRHLDYWGQGTQVTVSS | high polyreactivity |
| QVQLVESGGGLVQAGGSLRLSCAASGSIFYGYAMGWYRQAPGKERELVAAITDVGSTNYADSVKGRFTISRDNAKNTVYLQMNSLKPEDTAVYYCAADNYRRSSVDPFTDTMGYWGQGTQVTVSS | low polyreactivity |
| QVQLVESGGGLVQAGGSLRLSCAASGRTFALNAMGWYRQAPGKERELVAAISWSSGRTYYADSVKGRFTISRDNAKNTVYLQMNSLKPEDTAVYYCAALVAHKGDYWGQGTQVTVSS | high polyreactivity |
| QVQLVESGGGLVQAGGSLRLSCAASGSTIDGYAMGWYRQAPGKEREFVAAISFSSASTYYADSVKGRFTISRDNAKNTVYLQMNSLKPEDTAVYYCNADFFDSGGSIEYDSWGQGSQVTVSS | low polyreactivity |
| QVQLVESGGGLVQAGGSLRLSCAASGITFGQNAMGWYRQAPGKEREYVATITASGSTYYADSVKGRFTISRDNAKNTVYLQMNSLKPEDTAVYYCATRYAGEYYWDYDYWGQGTQVTVSS | high polyreactivity |
| QVQLVESGGGLVQAGGSLRLSCAASGSNIATYAMGWYRQAPWKETELVAAISSTGRTYYADSVKGRFTISRDNAKNTVYLQMTRLKPVDTAVYYCNTVRYRSRYGMDYWGQGTQVTVSS | high polyreactivity |
| QVQLVESGGGLVQAGGSLRLSCAASGRIFGTYTMGWYRQAPGKERELVASIRFGGSTYYADSVKGRFTISRDNAKNSVYLQMNSLKPEDTAVYYCNRVYGYNRRYGYWGQGTQVTVSS | high polyreactivity |
| QVQLVESGGGLVQAGGSLRLSCAASGFTFDINTMGWYRQAPGKERELVAAITYSGGSTYYADSVKGRFTISRDNAKNTVYLQMNSLKPEDTAVYYCATTWYFVASWYVAIYDYWGQGTQVTVSS | low polyreactivity |
| QVQLVESVGGLVQAGGSLRLSCAASGSTFSSYAMGWYRTAPGKERELVAALTASGGSTYYADSVKGRFTISRDNAKNTVYLQMNSLKPEDTAVYYCAAADVIFWLYYYWVQGTQVTVSS | low polyreactivity |
